From article PMC8639918, “Mechanism of phosphate sensing and signaling revealed by rice SPX1-PHR2 complex structure” (Nature Communications, 2021) come the findings set out here.

Values joined by “and” are separate entries in the source; they are usually repeats but may differ in a detail not shown here. Identical values can stand only once.

Series [1] deals with T1, SPX1^1–198 E135A (rice, UniProt Q69XJ0 1-198, E135A).
T1 construct: SPX1 (OsSPX1), rice, residues 1-198; not shown: His10, N-terminal, cleaved; MsyB, N-terminal, cleaved
T1 sequence (looked up): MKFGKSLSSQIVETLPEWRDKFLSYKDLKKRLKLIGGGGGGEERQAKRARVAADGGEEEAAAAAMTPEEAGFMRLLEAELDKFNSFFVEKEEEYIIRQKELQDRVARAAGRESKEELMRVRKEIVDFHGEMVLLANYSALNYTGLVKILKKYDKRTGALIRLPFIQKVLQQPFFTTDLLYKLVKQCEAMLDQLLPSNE
As to the kind of experiment: SEC; gel filtration of SPX1^1–198 and PHR2^248–380 and their mutants, buffer C (20 mM Tris/HCl pH 8.0, 200 mM NaCl, 1 mM TCEP) with or without InsP6 as the methods put it; samples incubated at 4 °C for 12 h (Figs. 2c, 5b, Supplementary Fig. 3a–d). The settings on record: both partners purified.

For series [2], the target named is T2, SPX1^1–198 Y180A (rice, UniProt Q69XJ0 1-198, Y180A).
T2 construct: SPX1 (OsSPX1), rice, residues 1-198; not shown: His10, N-terminal, cleaved; MsyB, N-terminal, cleaved
T2 sequence (looked up): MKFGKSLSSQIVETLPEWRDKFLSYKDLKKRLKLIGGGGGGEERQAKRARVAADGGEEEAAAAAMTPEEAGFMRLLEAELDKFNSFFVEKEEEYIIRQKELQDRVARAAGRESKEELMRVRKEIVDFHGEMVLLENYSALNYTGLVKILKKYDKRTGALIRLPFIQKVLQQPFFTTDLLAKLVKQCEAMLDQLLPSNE
The description is as above. The conditions noted are these: both partners purified.

Series [3] addresses T3, SPX1^1–198 (rice, UniProt Q69XJ0 1-198).
T3 construct: SPX1 (OsSPX1), rice, residues 1-198; also called SPX1 (residues 1–198); not shown: His10, N-terminal, cleaved; MsyB, N-terminal, cleaved
T3 sequence (looked up): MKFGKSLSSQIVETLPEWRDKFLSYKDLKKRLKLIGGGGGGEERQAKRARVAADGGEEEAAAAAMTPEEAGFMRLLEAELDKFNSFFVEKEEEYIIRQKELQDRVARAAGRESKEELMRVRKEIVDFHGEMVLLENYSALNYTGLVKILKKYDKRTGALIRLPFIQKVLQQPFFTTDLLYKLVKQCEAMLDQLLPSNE
Described as above. The settings on record: both partners purified.

Series [4] deals with the molecule itself. As to the kind of experiment: SEC-MALS; Superdex 200 Increase 10/300 GL, buffer C (20 mM Tris/HCl pH 8.0, 200 mM NaCl, 1 mM TCEP) without InsP6, 2–3 mg/ml, 4 °C. On the technique in general: Size exclusion chromatography separates by hydrodynamic size, large species first.
In series [5] the target is T4, SPX1^1–259 (C-terminally truncated fragment of rice SPX1) (rice, UniProt Q69XJ0 1-259).
T4 construct: also called OsSPX1; not shown: His10, N-terminal, cleaved; MsyB, N-terminal, cleaved
T4 sequence (looked up): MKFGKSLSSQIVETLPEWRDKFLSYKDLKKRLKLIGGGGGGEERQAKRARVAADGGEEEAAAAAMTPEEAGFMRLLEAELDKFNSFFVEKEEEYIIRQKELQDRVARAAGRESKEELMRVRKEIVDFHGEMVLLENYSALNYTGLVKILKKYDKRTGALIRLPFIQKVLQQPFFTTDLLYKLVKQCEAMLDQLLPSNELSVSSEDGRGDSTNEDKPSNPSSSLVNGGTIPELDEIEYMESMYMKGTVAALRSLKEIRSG
The experiment in a line: SEC-MALS; Superdex 200 Increase 10/300 GL, buffer C (20 mM Tris/HCl pH 8.0, 200 mM NaCl, 1 mM TCEP) with 1 mM InsP6, 2–3 mg/ml, 4 °C. The settings on record: both partners purified.

The target of series [6] is T4, SPX1^1–259 (C-terminally truncated …). The experiment in a line: ITC; PHR2^3M at 120 μM injected into SPX1^1–259 at 10 μM, in presence or absence of 1 mM InsP6; 25 °C; buffer F (20 mM HEPES/NaOH pH 7.5, 200 mM NaCl, 2 mM β-mercaptoethanol). The conditions noted are these: both partners purified. (Isothermal titration calorimetry measures the heat released or taken up as one component is titrated into another.)

B1: PHR2^248–380 (domain or fragment)
chain: not shown
notes: PHR2 (OsPHR2), rice, residues 248-380; also called PHR2 (residues 248–380); not shown: His10, N-terminal, cleaved; MsyB, N-terminal, cleaved
For the molecule B1, the binding result in series [1], in series [2] and in series [3] was “binds” in each case.

B2: PHR2^248–380 E363A (domain or fragment)
chain: not shown
notes: PHR2 (OsPHR2), rice, residues 248-380; not shown: His10, N-terminal, cleaved; MsyB, N-terminal, cleaved
As to B2, the binding result in series [3] is on record as “binds”.

B3: PHR2^248–380 R248A (domain or fragment)
chain: not shown
notes: PHR2 (OsPHR2), rice, residues 248-380; also called PHR2 R248 mutant; not shown: His10, N-terminal, cleaved; MsyB, N-terminal, cleaved
For B3, in series [3], the binding result is recorded as “binds”.

B4: PHR2^248–380 E353A (domain or fragment)
chain: not shown
notes: as for B2
For the molecule B4, the binding result in series [3] is “binds”.

B5: PHR2^248–380 E257A (domain or fragment)
chain: not shown
notes: PHR2 (OsPHR2), rice, residues 248-380; also called PHR2 E257 mutant; not shown: His10, N-terminal, cleaved; MsyB, N-terminal, cleaved
B5: the binding result in series [3] is “binds”.

B6: Arabidopsis PHR1^227–358 (MYB and CC domains only) (domain or fragment)
chain: not shown
notes: The methods describe only SPX1 and PHR2 constructs; also called AtPHR1
Consider B6, for which, in series [4], the “stoichiometry N” value was 2.

B7: PHR2^230–426 (MYB and CC domain-containing fragment of rice PHR2) (domain or fragment)
chain: not shown
notes: Alone in solution a mixture of dimer and tetramer; one copy in the complex with SPX1; not shown: His10, N-terminal, cleaved; MsyB, N-terminal, cleaved
On to B7, for which the “stoichiometry N” value was 2 and 4 in series [4]; 1 in series [5].

B8: PHR2^(230–426 L348A/L358A/I362A) (domain or fragment)
chain: not shown
notes: also called PHR2^3M; PHR2 monomeric mutant; not shown: His10, N-terminal, cleaved; MsyB, N-terminal, cleaved
Molecule B8 returned a Kd in series [6] of around 170 nM.

By stoichiometry N is commonly meant the number of molecules, sites or subunits per partner or assembly. Usually Kd stands for the equilibrium constant for the complex coming apart.
